According to patent US20180110770A1, “FERROPTOSIS AND GLUTAMINOLYSIS INHIBITORS AND METHODS OF TREATMENT” (MEMORIAL SLOAN-KETTERING CANCER CENTER, priority 2015, published 2018):

B1: bovine holo-transferrin: commercial iron-bound bovine holo-transferrin (Sigma) (protein, UniProt Q29443 20-704, looked up)
Serotransferrin: DPERTVRWCTISTHEANKCASFRENVLRILESGPFVSCVKKTSHMDCIKAISNNEADAVTLDGGLVYEAGLKPNNLKPVVAEFHGTKDNPQTHYYAVAVVKKDTDFKLNELRGKKSCHTGLGRSAGWNIPMAKLYKELPDPQESIQRAAANFFSASCVPCADQSSFPKLCQLCAGKGTDKCACSNHEPYFGYSGAFKCLMEGAGDVAFVKHSTVFDNLPNPEDRKNYELLCGDNTRKSVDDYQECYLAMVPSHAVVARTVGGKEDVIWELLNHAQEHFGKDKPDNFQLFQSPHGKDLLFKDSADGFLKIPSKMDFELYLGYEYVTALQNLRESKPPDSSKDECMVKWCAIGHQERTKCDRWSGFSGGAIECETAENTEECIAKIMKGEADAMSLDGGYLYIAGKCGLVPVLAENYKTEGESCKNTPEKGYLAVAVVKTSDANINWNNLKDKKSCHTAVDRTAGWNIPMGLLYSKINNCKFDEFFSAGCAPGSPRNSSLCALCIGSEKGTGKECVPNSNERYYGYTGAFRCLVEKGDVAFVKDQTVIQNTDGNNNEAWAKNLKKENFEVLCKDGTRKPVTDAENCHLARGPNHAVVSRKDKATCVEKILNKQQDDFGKSVTDCTSNFCLFQSNSKDLLFRDDTKCLASIAKKTYDSYLGDDYVRAMTNLRQCSTSKLLEACTFHKP
modifications: iron-bound
B2: bovine apo-transferrin: iron-free bovine apo-transferrin (protein, UniProt Q29443 20-704, looked up)
Serotransferrin: DPERTVRWCTISTHEANKCASFRENVLRILESGPFVSCVKKTSHMDCIKAISNNEADAVTLDGGLVYEAGLKPNNLKPVVAEFHGTKDNPQTHYYAVAVVKKDTDFKLNELRGKKSCHTGLGRSAGWNIPMAKLYKELPDPQESIQRAAANFFSASCVPCADQSSFPKLCQLCAGKGTDKCACSNHEPYFGYSGAFKCLMEGAGDVAFVKHSTVFDNLPNPEDRKNYELLCGDNTRKSVDDYQECYLAMVPSHAVVARTVGGKEDVIWELLNHAQEHFGKDKPDNFQLFQSPHGKDLLFKDSADGFLKIPSKMDFELYLGYEYVTALQNLRESKPPDSSKDECMVKWCAIGHQERTKCDRWSGFSGGAIECETAENTEECIAKIMKGEADAMSLDGGYLYIAGKCGLVPVLAENYKTEGESCKNTPEKGYLAVAVVKTSDANINWNNLKDKKSCHTAVDRTAGWNIPMGLLYSKINNCKFDEFFSAGCAPGSPRNSSLCALCIGSEKGTGKECVPNSNERYYGYTGAFRCLVEKGDVAFVKDQTVIQNTDGNNNEAWAKNLKKENFEVLCKDGTRKPVTDAENCHLARGPNHAVVSRKDKATCVEKILNKQQDDFGKSVTDCTSNFCLFQSNSKDLLFRDDTKCLASIAKKTYDSYLGDDYVRAMTNLRQCSTSKLLEACTFHKP
modifications: iron-free

Test system: bax/bak-DKO MEFs
Test: Death-inducing activity of transferrin and L-Gln under amino acid starvation
Assay type: cell-based, mouse
Details: with smFBS, 12 hrs
Experimental: To induce cell death, 80%-confluent cells were washed with PBS twice, and then cultured in amino acid-free medium, with specific factors added as indicated in individual experiments. Cell death was analyzed by propidium iodide (PI) staining coupled with microscopy or flow cytometry. Alternatively, cell viability was determined using the CellTiter-Glo luminescent Cell Viability Assay (Promega). In assays using WT MEFs, viability was calculated by normalizing ATP levels to cells treated with amino acid-starvation in the presence of 10% (v/v) diFBS, while in assays using bax/bak-DKO MEFs, ATP levels were normalized to cells treated with amino acid and FBS double starvation.

Row | Molecule | induction of cell death in the presence of smFBS
1 | B1 | induced robust cell death
2 | B2 | does not possess killing activity
